Laboratory results published in paper doi:10.1101/2025.05.29.656919 (bioRxiv, 2025).
Changes are numbered by the printed parent chain. Names may count otherwise.

What was measured:
Experiment in all cases: pull-down
[1] = biological target: T1, Glutathione S-transferase-fused VDAC1 (Arabidopsis, UniProt Q9SRH5 1-276)
T1 sequence (looked up): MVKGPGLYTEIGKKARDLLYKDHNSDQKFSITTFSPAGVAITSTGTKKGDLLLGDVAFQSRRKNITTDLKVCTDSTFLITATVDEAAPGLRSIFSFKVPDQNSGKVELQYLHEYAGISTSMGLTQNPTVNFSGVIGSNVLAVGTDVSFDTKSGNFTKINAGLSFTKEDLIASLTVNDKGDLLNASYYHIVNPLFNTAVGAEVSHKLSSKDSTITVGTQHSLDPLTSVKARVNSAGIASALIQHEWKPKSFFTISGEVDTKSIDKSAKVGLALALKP

[2] = biological target: T2, Glutathione S-transferase-fused VDAC2 (Arabidopsis, UniProt Q9FJX3 1-276)
T2 sequence (looked up): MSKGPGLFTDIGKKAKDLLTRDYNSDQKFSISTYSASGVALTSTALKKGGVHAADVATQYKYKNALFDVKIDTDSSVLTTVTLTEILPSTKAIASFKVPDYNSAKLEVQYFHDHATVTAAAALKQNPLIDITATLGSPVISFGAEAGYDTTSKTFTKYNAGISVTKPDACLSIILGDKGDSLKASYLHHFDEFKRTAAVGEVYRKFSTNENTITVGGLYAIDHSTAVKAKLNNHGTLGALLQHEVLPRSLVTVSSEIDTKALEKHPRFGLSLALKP

[3] = biological target: T3, Glutathione S-transferase-fused VDAC3 (Arabidopsis, UniProt Q9SMX3 1-274)
T3 sequence (looked up): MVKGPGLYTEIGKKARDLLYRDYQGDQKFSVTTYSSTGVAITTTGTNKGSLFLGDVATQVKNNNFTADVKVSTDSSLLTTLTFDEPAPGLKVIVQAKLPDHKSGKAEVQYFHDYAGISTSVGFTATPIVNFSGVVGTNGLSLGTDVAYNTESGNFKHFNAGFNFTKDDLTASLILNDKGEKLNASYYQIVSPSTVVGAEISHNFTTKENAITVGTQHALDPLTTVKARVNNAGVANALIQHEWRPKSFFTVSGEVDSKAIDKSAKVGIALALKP

Measured: binding result

B1: 6×His-tagged ATG8e (natural protein, Arabidopsis, UniProt Q8S926 1-118, looked up)
chain: MNKGSIFKMDNDFEKRKAEAGRIREKYPDRIPVIVEKAEKSEVPNIDKKKYLVPSDLTVGQFVYVIRKRIKLSAEKAIFIFVDNVLPPTGELMSSVYEDKKDEDGFLYITYSGENTFG
binds: all assays above

B2: ATG8e with UDS mutation (I78A, F79A, I80A) (natural protein, Arabidopsis, UniProt Q8S926 1-118, looked up)
chain: B1 chain with I78A, F79A, I80A
binds: all assays above
